# From doi:10.1101/2021.10.26.465098
# Molecular target: HAdV-C5, -D26 and -B35
# Test: SPR
substance,measurement,value
human neutrophil protein 1 (HNP-1) (from UniProt P59665 65-94) (peptide),Kd,37 to 76 nM
